Reference: US20210324080A1 (JIANGSU HUAIYU PHARMACEUTICAL, published 2021)
Numbering of substitutions follows the chain as printed.

What was measured:
[1] = target: T1, human CTLA-4 (Y201V), full length, on transfected cells (human, UniProt P16410 36-223); test: FACS, human CTLA-4 expressing cells
T1 construct: whole, on cells; also called hCTLA-4; HEK293-hCTLA-4 (Y201V)
T1 sequence (looked up): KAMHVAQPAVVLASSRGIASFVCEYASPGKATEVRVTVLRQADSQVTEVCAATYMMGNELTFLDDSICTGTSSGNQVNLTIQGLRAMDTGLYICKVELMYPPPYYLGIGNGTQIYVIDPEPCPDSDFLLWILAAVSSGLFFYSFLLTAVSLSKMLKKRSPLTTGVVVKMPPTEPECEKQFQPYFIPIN

[2] = target: T2, CTLA-4 on human T lymphocytes (PBMC, CD3+ T cells) (human, UniProt P16410 36-223); test: cell-based or functional assay
T2 sequence (looked up): T1 sequence (looked up) with V166Y

[3] = target: T3, CTLA-4-hFc (immunogen A; hFc-labeled CTLA-4 extracellular domain protein) (human, UniProt P16410 36-161); test: blocking assay, CTLA-4 protein, competitor B7.2
T3 construct: range 36-161; Made in HEK293 cells, purified on protein A; also called CLTA-4-hFc; CTLA-4 protein; not shown: human IgG Fc fragment (hFc) of the pCpC vector
T3 sequence (looked up): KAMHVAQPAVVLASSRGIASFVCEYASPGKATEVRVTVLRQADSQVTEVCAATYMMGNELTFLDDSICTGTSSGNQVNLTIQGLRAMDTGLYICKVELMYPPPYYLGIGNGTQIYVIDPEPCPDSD
Description: (§1) CTLA-4 extracellular domain protein (CTLA-4-hFc) was diluted with PBS to a final concentration of 1.0 μg/mL, and then added to a 96-well ELISA plate as 100 μl per well. The plate was covered with a plastic film and incubated overnight at 4° C. The plate was washed twice with plate washing solution [PBS containing 0.01% (v/v) Tween 20] on the next day, and added with blocking solution [PBS containing 0.01% (v/v) Tween 20 and 1% (w/w) BSA] and blocked at room temperature for 2 hours. […] After 2 hours, the plate was washed 3 times with a plate washing solution [PBS containing 0.01% (v/v) Tween 20]. HRP (horseradish peroxidase) labeled avidin diluent (purchased from Sigma) was added 100 microliters per well, and after the plate was incubated for 2 hours at 37° C., it was washed with plate washing solution [PBS containing 0.01% (v/v) Tween 20] for 3 times. […] TMB substrate was added to each well. After incubated at room temperature for 30 minutes, the plate was added with […] stop solution (1.0N HCl) to each well. An ELISA plate reader (SpectraMax 384plus, Molecular Device) was used to read the A450 nm value.

[4] = target: T4, monkey CTLA-4, full length, on transfected HEK293 cells (monkey); test: FACS, monkey CTLA-4 expressing cells
T4 construct: whole, on cells; also called cCTLA-4; HEK293-cCTLA-4
Text: The pIRES plasmid with the monkey-derived CTLA-4 full-length gene was transfected into the HEK293 cell line to construct a HEK293 stable cell line containing monkey CTLA-4 (herein referred to as HEK293-cCTLA-4 stable cell line), wherein the database accession number of the monkey CTLA-4 nucleotide sequence is XM_005574014.1. The HEK293-hCTLA-4 stable cell line and HEK293-cCTLA-4 stable cell line were expanded in a T-75 cell culture flask to a 90% confluence. The medium was aspirated, and the cells were washed with HBSS buffer (Hanks Balanced Salt Solution, purchased from Invitrogen) twice, then treated with an enzyme-free cell dissociation fluid (Versene solution, purchased from Life technology) and the cells were collected. The cells were washed with HBSS buffer twice. After counted, the cells were diluted with HBSS buffer to 2×10⁶ cells per ml, added with 1% goat serum blocking solution, wherein the percentage was the mass percantage. Cells were incubated on ice for 30 minutes, then washed twice with HBSS buffer by centrifugation. The collected cells were suspended in the FACS buffer (HBSS containing 1% BSA, wherein the percentage was the mass percantage) to 2×10⁶ cells/ml, added as 100 microliters per well to a 96-well FACS reaction plate, added with 100 microliters per well of the purified CTLA-4 antibody sample to be tested, incubated on ice for 2 hours. The plate was washed twice with the FACS buffer by centrifugation, added with 100 microliters of fluorescent (Alexa 488)-labeled secondary antibodies (purchased from Invitrogen) per well, and incubated on ice for 1 hour. The plate was washed 3 times with FACS buffer by centrifugation, added with 100 μl fixative solution [4% (v/v) Paraformaldehyde] per well to suspend the cells. 10 minutes later, it was washed 2 times with FACS buffer by centrifugation. The cells were suspended with 100 microliters of FACS buffer, FACS (FACS Calibur, purchased from BD) was used for detection and the results were analyzed.

[5] = target: T3, CTLA-4-hFc (immunogen A; hFc-labeled …); test: blocking assay, CTLA-4 protein, competitor B7.1
Description: as §1

B1: 97A8D1 fully human CTLA-4 antibody (human IgG1, kappa) (antibody, V domains shown)
VH: QVQLVESGGGVVQPGRSLRLSCVASGFTFNNYGMNWVRQAPGKGLEWVAVIWYGGRNKFYADSVKGRFTISRDNSKNTLYLEMNSLRAEDTAVYYCARADWGGWFDPWGQGTLVTVSS
VL: EIVLTQSPGTLSLSPGERATLSCRASQSVSSTYLAWYQQKPGQAPRLLIHGAFSRATGIPDRFSGSGSGPDFTLTISRLEPEDFAVYYCQQYGTSPFTFGPGTKVDIK
notes: also called mAb49; mAb049
MFI at 0.000128 nM [1]: 3
MFI at 0.0128 nM [1]: 22
MFI at 0.064 nM [1]: 66
MFI at 0.32 nM [1]: 196
MFI at 1.6 nM [1]: 580
MFI at 8 nM [1]: 919
MFI at 40 nM [1]: 1020
MFI at 200 nM [1]: 1020
IL-2 secretion, pg/ml, at 0.13 ug/ml, N = 1 [2]: 1520 pg/mL
IL-2 secretion, pg/ml, at 0.13 ug/ml, N = 2 [2]: 1500 pg/mL
IL-2 secretion, pg/ml, at 0.37 ug/ml, N = 1 [2]: 2110 pg/mL
IL-2 secretion, pg/ml, at 0.37 ug/ml, N = 2 [2]: 1960 pg/mL
IL-2 secretion, pg/ml, at 1.1 ug/ml, N = 1 [2]: 2660 pg/mL
IL-2 secretion, pg/ml, at 1.1 ug/ml, N = 2 [2]: 2610 pg/mL
IL-2 secretion, pg/ml, at 3.3 ug/ml, N = 1 [2]: 4660 pg/mL
IL-2 secretion, pg/ml, at 3.3 ug/ml, N = 2 [2]: 3330 pg/mL
IL-2 secretion, pg/ml, at 10 ug/ml, N = 1 [2]: 5080 pg/mL
IL-2 secretion, pg/ml, at 10 ug/ml, N = 2 [2]: 5560 pg/mL
IL-2 secretion, pg/ml, at 30 ug/ml, N = 1 [2]: 6090 pg/mL
IL-2 secretion, pg/ml, at 30 ug/ml, N = 2 [2]: 7540 pg/mL
% Block at 0.000128 nM [3]: 0%
% Block at 0.0128 nM [3]: 33%
% Block at 0.064 nM [3]: 48.4%
% Block at 0.32 nM [3]: 84.1%
% Block at 1.6 nM [3]: 99%
% Block at 8 nM [3]: 99.2%
% Block at 40 nM [3]: 99.2%
% Block at 200 nM [3]: 99.2%
MFI at 0.000128 nM [4]: 2
MFI at 0.0128 nM [4]: 23
MFI at 0.064 nM [4]: 67
MFI at 0.32 nM [4]: 225
MFI at 1.6 nM [4]: 513
MFI at 8 nM [4]: 754
MFI at 40 nM [4]: 910
MFI at 200 nM [4]: 831
% Block at 0.000128 nM [5]: 0%
% Block at 0.0128 nM [5]: 6.1%
% Block at 0.064 nM [5]: 28.7%
% Block at 0.32 nM [5]: 67.8%
% Block at 1.6 nM [5]: 90.6%
% Block at 8 nM [5]: 95.2%
% Block at 40 nM [5]: 97.2%
% Block at 200 nM [5]: 98.4%
